The target of experiment [1] is T1, p…-Biotin.
T1 sequence (peptide, phosphoserine at 1; C-terminal Biotin): SAKLDEESILKQ
The experiment is described as follows: Octet (BLI), fixed reagent concentration.

The target of another experiment is T2, …-Biotin.
T2 sequence (peptide, C-terminal Biotin): SAKLDEESILKQ
The experiment is described as follows: Octet (BLI), fixed reagent concentration. For orientation: In BLI a coated tip is dipped into the sample, and binding shifts an interference pattern.

A further experiment relates to SAKLDEESILKQ-Biotin. The experiment is described as follows: Octet binding assay of PTM-specific affinity reagent candidates, SA control peptide. Further details: unit not given here. Particulars: fixed concentration of reagent. An excerpt: (§1) This Example characterizes an exemplary phosphorylated threonine recognizer for use in methods of the disclosure.
Experiment [2] relates to pSAKLDEESILKQ-Biotin. The experiment in a line: Octet binding assay of PTM-specific affinity reagent candidates, pSA peptide. The note with it: fixed concentration of reagent.
Source text: as §1

Another experiment has as its target QRFpYLAYPDDD-FITC. The experiment in a line: bulk fluorescence polarization, 0.5 µM PM49, FITC-labeled peptide. In general terms: Polarisation of emitted light reports the rotation of a fluorescent probe.
In experiment [3] the target is p…. The experiment in a line: Octet (BLI), sensors coated with peptide.
The target of experiment [4] is T3, p…-Biotin.
T3 sequence (peptide, phosphothreonine at 1; C-terminal Biotin): TAKLDEESILKQ
The experiment is described as follows: Octet (BLI), fixed reagent concentration. The source holds these as a separate data set.

The target of another experiment is EFLN-pT-RFYK. The experiment is described as follows: Octet (BLI), sensors coated with peptide.
The target in experiment [5] is pT-…. The experiment in a line: Octet (BLI), sensors coated with peptide.
Experiment [6] deals with T4, pSAKLDEESILKQ-Biotin.
T4 peptide: [pS]AKLDEESILKQ-{Biotin′}
The experiment in a line: Octet (BLI), fixed reagent concentration.
Protocol: (§3) Octet binding assays at a fixed concentration of PTM-specific affinity reagent candidates were evaluated for binding with phospho-threonine, phospho-serine containing peptides (p[sequence]-Biotin; p[sequence]-Biotin; p[sequence]-Biotin), and control peptides without modifications ([sequence]-Biotin; [sequence]-Biotin).

The target in a further experiment is T5, TAKLDEESILKQ-Biotin.
T5 peptide: TAKLDEESILKQ-{Biotin′}
The experiment in a line: Octet (BLI), fixed reagent concentration.

A further experiment concerns the target T6, pTAKLDEESILKQ-Biotin.
T6 peptide: [pT]AKLDEESILKQ-{Biotin′}
The experiment is described as follows: Octet (BLI), fixed reagent concentration.

The target of experiment [7] is p…-Biotin. The experiment is described as follows: Octet (BLI), fixed reagent concentration. This is another data set of the same source.
The test system of experiment [8] is p[…]-Biotin. The experiment is described as follows: Octet binding assay of PTM-specific affinity reagent candidates, pTQR peptide. Particulars: fixed concentration of reagent. Here is the method: This Example characterizes an exemplary phosphorylated threonine recognizer for use in methods of the disclosure. Octet binding assays at a fixed concentration of PTM-specific affinity reagent candidates were evaluated for binding with phospho-threonine, phospho-serine containing peptides (p[…]-Biotin; p[…]-Biotin; p[…]-Biotin), and control peptides without modifications ([…]-Biotin; […]-Biotin).

Experiment [9] deals with p[…]-Biotin. The experiment in a line: Octet binding assay of PTM-specific affinity reagent candidates, pTA peptide. Particulars: fixed concentration of reagent.
Source text: as §1

The next experiment relates to LAQYLAYPDDDK
The experiment is described as follows: On-chip fluorescence signature of PTM-specific affinity reagent binding before sequencing (Example 1), control polypeptide. The note with it: polypeptide without PTM, collected for 30 minutes. The method, then: (§2) A control polypeptide ([…]) and a model polypeptide comprising a phospho-tyrosine (LAQ-pY-[…]) were tested in this Example. Each polypeptide was first immobilized onto independent surfaces of a chip. A post-translational modification-specific (PTM-specific) affinity reagent that binds to phospho-tyrosine (PS33 (SEQ ID NO: 35)) and comprised a fluorescent label was then added to the chip and allowed to contact the polypeptides. […] The chip was then washed to remove the PTM-specific affinity reagent. A protein sequencing analysis of the polypeptides was then performed. A mixture of labeled terminal amino acid recognition molecules was added to the chip and allowed to incubate for 15 minutes. After 15 minutes, a mixture of cleaving reagents (a mixture of aminopeptidases) was added to the chip. During these steps, a series of signal pulses indicative of association of the one or more terminal amino acid recognition molecules with successive amino acids exposed at a terminus of each polypeptide were collected while each polypeptide was being degraded.

Another experiment relates to LAQ-pY-LAYPDDDK
The experiment is described as follows: On-chip fluorescence signature of PTM-specific affinity reagent binding before sequencing (Example 1). The note with it: polypeptide with PTM, collected for 30 minutes. Here is the method:
as §2

Where two headings read alike, the source gives them in different places. Primed or numbered codes have the meaning given here. Where no end group is shown, it is not given here. [ ]: non-standard residue; d: D form. pT = C[C@@H](OP(=O)(O)O)[C@H](N)C(=O)O; pS = N[C@@H](COP(=O)(O)O)C(=O)O; Biotin′ = not defined here

Protocol for pTAKLDEESILKQ-Biotin: as §3

As for “PM06 (Human/14-3-3 protein zeta/delta) (from UniProt P63103 1-245)”, the Octet binding assay response in the experiment with p…-Biotin [1] and in the experiment with …-Biotin was 0.1 throughout.

As to “PM06: Human/14-3-3 protein zeta/delta, SEQ ID NO: 6”, in the experiment with SAKLDEESILKQ-Biotin (SA = SAKLDEESILKQ-Biotin (control)), the “Octet binding assay response, SA” value was 0.1. Besides, the “Octet binding assay response, pSA” value in the experiment with pSAKLDEESILKQ-Biotin [2] stood at 0.1.

Regarding “PM49 (ABCAM® Biotin Anti-Phosphotyrosine antibody [EPR16871])”, in the experiment with QRFpYLAYPDDD-FITC, the fold tighter binding affinity against an N-terminal phospho-tyrosine is 2 fold. The Octet shift in experiment [3] came out at 10.2.

In the case of “PM12 (Mycobacterium tuberculosis/FhaA) (from UniProt P71590 430-527)”, the Octet binding assay response was determined as 7.1 with p…-Biotin [4] and 0.6 in the experiment with …-Biotin. Further, the Octet shift with EFLN-pT-RFYK amounted to 6.8; in [5], 4.4.

B1: PM02 (Human/14-3-3 protein theta) (other)
chain: MEKTELIQKAKLAEQAERYDDMATCMKAVTEQGAELSNEERNLLSVAYKNVVGGRRSAWRVISSIEQKTDTSDKKLQLIKDYREKVESELRSICTTVLELLDKYLIANATNPESKVFYLKMKGDYFRYLAEVACGDDRKQTIDNSQGAYQEAFDISKKEMQPTHPIRLGLALNFSVFYYEILNNPELACTLAKTAFDEAIAELDTLNEDSYKDSTLIMQLLRDNLTLWTSDSAGEECDAAEGAEN
For the molecule B1, the Octet binding assay response stood at 0.3 with …-Biotin; 0.3 with pSAKLDEESILKQ-Biotin [6]; 0.3 with TAKLDEESILKQ-Biotin; 0.3 in the experiment with pTAKLDEESILKQ-Biotin; 0.5 in the experiment with p…-Biotin [7].

B2: PM18 (Human/MINT) (other)
chain: MVDMVQLLKKYPIVWQGLLALKNDTAAVQLHFVSGNNVLAHRSLPLSEGGPPLRIAQRMRLEATQLEGVARRMTVETDYCLLLALPCGRDQEDVVSQTESLKAAFITYLQAKQAAGIINVPNPGSNQPAYVLQIFPPCEFSESHLSRLAPDLLASISNISPHLMIVIASV
As to B2, the Octet binding assay response in the experiment with p…-Biotin [1] was 0.6; in the experiment with p…-Biotin [4] (pTA phosphothreonine peptide), 0.7; with p…-Biotin [4] (pTQR phosphothreonine peptide) it was 1.6; with …-Biotin, 0.9; with TAKLDEESILKQ-Biotin it was 0.6. Besides, in the experiment with SAKLDEESILKQ-Biotin (SA = […]-Biotin (control)), the “Octet binding assay response, SA” value is listed as 0.9. The “Octet binding assay response, pTQR” value in the experiment on p[…]-Biotin [8] amounted to 1.6. In addition, in the experiment on p[…]-Biotin [9], the “Octet binding assay response, pTA” value was found to be 0.7.

B3: PS33: SH domanin Fyn Triple mutant, SEQ ID NO: 35; PTM-specific affinity reagent that specifically binds to phospho-tyrosine (protein)
chain: MGAMDSIQAEEWYFGKLGRKDAERQLLSFGNPRGTFLIRESETVKGAYALSIRDWDDMKGDHVKHYLIRKLDNGGYYITTRAQFETLQQLVQHYSERAAGLSSRLVVPSHK
With B3, the “fluorescence signature representative of binding interaction(s)” value is “no fluorescence signature” with LAQYLAYPDDDK and “strong fluorescence signature” in the experiment with LAQ-pY-LAYPDDDK.

B4: PM05 (Human/14-3-3 protein beta/alpha) (other)
chain: MTMDKSELVQKAKLAEQAERYDDMAAAMKAVTEQGHELSNEERNLLSVAYKNVVGARRSSWRVISSIEQKTERNEKKQQMGKEYREKIEAELQDICNDVLELLDKYLIPNATQPESKVFYLKMKGDYFRYLSEVASGDNKQTTVSNSQQAYQEAFEISKKEMQPTHPIRLGLALNFSVFYYEILNSPEKACSLAKTAFDEAIAELDTLNEESYKDSTLIMQLLRDNLTLWTSENQGDEGDAGEGEN
B4: the Octet binding assay response in the experiment with …-Biotin, with pSAKLDEESILKQ-Biotin [6], with TAKLDEESILKQ-Biotin, with pTAKLDEESILKQ-Biotin and in the experiment with p…-Biotin [7] was 0.2 throughout.

B5: PM03 (Human/14-3-3 protein eta) (other)
chain: MGDREQLLQRARLAEQAERYDDMASAMKAVTELNEPLSNEDRNLLSVAYKNVVGARRSSWRVISSIEQKTMADGNEKKLEKVKAYREKIEKELETVCNDVLSLLDKFLIKNCNDFQYESKVFYLKMKGDYYRYLAEVASGEKKNSVVEASEAAYKEAFEISKEQMQPTHPIRLGLALNFSVFYYEIQNAPEQACLLAKQAFDDAIAELDTLNEDSYKDSTLIMQLLRDNLTLWTSDQQDEEAGEGN
Take B5: the Octet binding assay response with …-Biotin is 0.3; with pSAKLDEESILKQ-Biotin [6], 0.2; with TAKLDEESILKQ-Biotin, 0.2; in the experiment with pTAKLDEESILKQ-Biotin, 0.2; in the experiment with p…-Biotin [7], 0.4.
